T1: 人MerTK, M2c分化的人巨噬细胞上 (human, UniProt Q12866 21-999)
T1 sequence: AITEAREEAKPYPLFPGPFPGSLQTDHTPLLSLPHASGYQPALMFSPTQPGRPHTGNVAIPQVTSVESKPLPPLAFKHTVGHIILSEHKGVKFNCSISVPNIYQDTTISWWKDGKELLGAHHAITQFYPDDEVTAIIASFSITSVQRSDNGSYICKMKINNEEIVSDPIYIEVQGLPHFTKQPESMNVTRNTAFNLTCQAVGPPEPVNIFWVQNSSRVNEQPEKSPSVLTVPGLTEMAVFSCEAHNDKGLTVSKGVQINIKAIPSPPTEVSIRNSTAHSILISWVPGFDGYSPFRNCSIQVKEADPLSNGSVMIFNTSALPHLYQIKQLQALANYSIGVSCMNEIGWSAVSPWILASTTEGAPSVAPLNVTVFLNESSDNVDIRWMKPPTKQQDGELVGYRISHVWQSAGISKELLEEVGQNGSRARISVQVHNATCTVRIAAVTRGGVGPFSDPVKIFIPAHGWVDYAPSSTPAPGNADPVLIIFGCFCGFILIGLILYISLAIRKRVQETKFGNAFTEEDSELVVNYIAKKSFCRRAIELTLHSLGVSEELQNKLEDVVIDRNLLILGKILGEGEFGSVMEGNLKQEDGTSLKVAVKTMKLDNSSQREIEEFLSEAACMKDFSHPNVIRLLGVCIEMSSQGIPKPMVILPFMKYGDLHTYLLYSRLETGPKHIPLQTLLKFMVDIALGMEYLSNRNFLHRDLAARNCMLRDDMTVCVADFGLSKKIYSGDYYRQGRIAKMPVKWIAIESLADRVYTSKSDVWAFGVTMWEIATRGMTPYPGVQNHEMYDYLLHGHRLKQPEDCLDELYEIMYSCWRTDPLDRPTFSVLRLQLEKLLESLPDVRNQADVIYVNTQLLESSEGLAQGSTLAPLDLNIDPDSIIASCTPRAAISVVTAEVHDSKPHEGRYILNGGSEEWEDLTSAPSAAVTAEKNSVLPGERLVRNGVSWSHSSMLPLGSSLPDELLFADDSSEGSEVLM


Legend:
人MerTK, M2c分化的人巨噬细胞上 [1] = target: T1, 人MerTK, M2c分化的人巨噬细胞上; experiment: cell-based or functional assay
人MerTK, M2c分化的人巨噬细胞上 [2] = target: T1, 人MerTK, M2c分化的人巨噬细胞上; experiment: FACS, Dylight650-conjugated antibody titrated on M2c differentiated human macrophages; Kd from MFI by Prism (EC50-like)

胞葬作用 IC50 (efferocytosis of pHrodo-labelled apoptotic Jurkat cells by M2c human macrophages) (人MerTK, M2c分化的人巨噬细胞上 [1]) [nM]	Kd (人MerTK, M2c分化的人巨噬细胞上 [2]) [nM]	Binder
~4.4		单价(单臂)抗MerTK抗体MTK-33.11 (Fc LALAPS) (antibody, V domains shown, Dylight650 conjugate in the FACS binding assay (site not stated)) VH: QVQLVQSGAEVKKPGASVKVSCKASGYTFTSYWMHWVRQAPGQGLEWIGVIDPSDNYINYNQKFQGRVTMTRDTSTSTVYMELSSLRSEDTAVYYCAREAWTRGYFDYWGQGTLVTVSS VL: DIQMTQSPSSLSASVGDRVTITCQASRSVRNTVAWYQQKPGKAPKLLIYYASNRYTGVPSRFSGSGSGTDFTFTISSLQPEDIATYYCQQDYRSPFTFGQGTKLEIK
37.9	~78	单价(单臂)抗MerTK抗体MTK-16.2 (Fc LALAPS) (antibody, V domains shown, Dylight650 conjugate in the FACS binding assay (site not stated)) VH: QVQLVQSGSELKKPGASVKVSCKASGYTFTNHGMNWVRQAPGQGLEWMGWINTYTGEPTYADDFKGRFVFSLDTSVSTAYLQISSLKAEDTAVYYCARKGVTAARYFDYWGQGTLVTVSS VL: DIQMTQSPSSLSASVGDRVTITCRASQNVRTAVAWYQQKPGKAPKRLIYLASNRHTGVPSRFSGSGSGTEFTLTISNLQPEDFATYYCLQHWNYPLTFGGGTKLEIK
0.436	~52	二价(全IgG)抗MerTK抗体MTK-16.2 (Fc LALAPS) (antibody, V domains shown, Dylight650 conjugate in the FACS binding assay (site not stated)) VH: QVQLVQSGSELKKPGASVKVSCKASGYTFTNHGMNWVRQAPGQGLEWMGWINTYTGEPTYADDFKGRFVFSLDTSVSTAYLQISSLKAEDTAVYYCARKGVTAARYFDYWGQGTLVTVSS VL: DIQMTQSPSSLSASVGDRVTITCRASQNVRTAVAWYQQKPGKAPKRLIYLASNRHTGVPSRFSGSGSGTEFTLTISNLQPEDFATYYCLQHWNYPLTFGGGTKLEIKR
